The target in series [1] is HCV NS5B RNA-dependent RNA polymerase (Hepatitis C virus) (UniProt P26663). The series can be described thus: SPR. The conditions noted are these: 2'-F on all C and U.
Series [2] shares this target. The series can be described thus: EMSA. The settings on record: 2'-F on all C and U; apparent Kd; 4% nondenaturing gel. Background: In EMSA bound probe runs differently from free probe, usually more slowly.

HCV NS5B RNA-dependent RNA polymerase (Hepatitis C virus), sequence (P26663 2420-3010): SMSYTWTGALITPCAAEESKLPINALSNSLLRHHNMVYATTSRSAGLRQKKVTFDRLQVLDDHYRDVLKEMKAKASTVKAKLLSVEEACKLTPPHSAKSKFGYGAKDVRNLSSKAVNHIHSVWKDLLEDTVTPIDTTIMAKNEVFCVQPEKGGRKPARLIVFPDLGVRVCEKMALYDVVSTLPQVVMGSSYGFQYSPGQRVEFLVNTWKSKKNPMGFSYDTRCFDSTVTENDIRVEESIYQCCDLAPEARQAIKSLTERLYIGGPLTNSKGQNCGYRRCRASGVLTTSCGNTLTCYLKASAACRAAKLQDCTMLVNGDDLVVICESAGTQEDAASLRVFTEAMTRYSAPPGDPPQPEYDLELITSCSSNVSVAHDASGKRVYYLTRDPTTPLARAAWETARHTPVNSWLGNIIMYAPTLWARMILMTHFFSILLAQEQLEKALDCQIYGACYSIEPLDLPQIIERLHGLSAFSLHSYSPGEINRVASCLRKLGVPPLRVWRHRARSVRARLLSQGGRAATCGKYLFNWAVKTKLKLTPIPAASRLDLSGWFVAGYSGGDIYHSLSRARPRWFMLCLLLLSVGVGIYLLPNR

“AACGAUUGGUAGUAGAAUAUCGU [RNA aptamer #9-t3]”: the Kd in series [1] (5' end of the transcript may carry extra G from T7 primer) came out at 40.4 nM.
With “GGGAGAGCGGAAGCGUGCUGGGCCUUGAACGAUUGGUAGUAGAAUAUCGUCAGUGAACGGCAGUCAUAACCCAGAGGUCGAUGGAUCCU [RNA aptamer #9]”, in series [2], the Kd is 18 nM.
In series [1] (listing SEQ 4 lacks the 5' G printed in text), “GUUGAACGAUUGGUAGUAGAAUAUCGUCAG [RNA aptamer #9-t2]” had a Kd of 2.6 nM.
On to “GGGAGAGCGGAAGCGUGCUGGGCCGACAGGGUAGCUUACAGCUGCAUGAUCGCUAGAGGGCGAACAUAACCCAGAGGUCGAUGGAUCCCCCC [RNA aptamer #24]”, for which the Kd in series [2] stood at 5 nM.
The sequence “GCUGGGCCUUGAACGAUUGGUAGUAGAAUAUCGUCAGUGAACGGC [RNA aptamer #9-t1]” gave a Kd in series [1] of 8.4 nM.

The values above are taken from patent US20100160617.
